Test [1] deals with endophilin SH3 (SH3G2_HUMAN), Q99962. Put plainly: SPOT array.
For test [2], the target named is T1, amphyphisin SH3 (AMPH_HUMAN), P49418.
T1 chain: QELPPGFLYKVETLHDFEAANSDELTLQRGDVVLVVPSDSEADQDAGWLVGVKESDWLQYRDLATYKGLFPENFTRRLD
The test is described as follows: SPOT array.

Drawing on PMC314469, “Protein Interaction Networks by Proteome Peptide Scanning” (PLoS Biology, 2004), this text covers normalised SPOT signal, Boehringer light units (BLU); mean over the file's lines of this peptide for 28 molecules.

B1: Q9H1V5 1094-1108 (peptide)
chain: PPPPPARPPARRAS
With B1, the normalised SPOT signal, Boehringer light units (BLU); mean over the file's lines of this peptide in test [1] stood at 13100; in test [2] it was 11500.

B2: Q9H293 60-73 (peptide)
chain: PPLEPARPNRHPES
For B2, the normalised SPOT signal, Boehringer light units (BLU); mean over the file's lines of this peptide in test [1] turned out to be 0; in test [2], 282.

B3: Q9NQW1 380-393 (peptide)
chain: PPKWIRRPTGVSFA
For B3, the normalised SPOT signal, Boehringer light units (BLU); mean over the file's lines of this peptide in test [1] was determined as 433; in test [2], 42.3.

B4: Q96RY6 273-286 (peptide)
chain: AARTLRRPKALDSG
For B4, the normalised SPOT signal, Boehringer light units (BLU); mean over the file's lines of this peptide amounted to 0 in test [1] and 7.6 in test [2].

B5: Q9P1A6 952-966 (peptide)
chain: PPPIPKKPPKGKFP
For B5, the normalised SPOT signal, Boehringer light units (BLU); mean over the file's lines of this peptide in test [1] was 3890; in test [2], 64.7.

B6: Q8TED9 137-151 (peptide)
chain: PPPLPNKPPPEDYY
With B6, the normalised SPOT signal, Boehringer light units (BLU); mean over the file's lines of this peptide in test [1] came out at 92.7; in test [2], 42.3.

B7: Q9UJJ7 281-295 (peptide)
chain: PPPPPTKPPETEAQ
As to B7, the normalised SPOT signal, Boehringer light units (BLU); mean over the file's lines of this peptide in test [1] amounted to 63.1; in test [2], 59.9.

B8: Q9H9H4 263-277 (peptide)
chain: PPPLPQRPPPRLPP
For B8, the normalised SPOT signal, Boehringer light units (BLU); mean over the file's lines of this peptide in test [1] is 2770; in test [2] it was 2170.

B9: O43584 96-109 (peptide)
chain: PPPTPRRPASVNGS
Regarding B9, the normalised SPOT signal, Boehringer light units (BLU); mean over the file's lines of this peptide in test [1] is 1020; in test [2], 170.

B10: Q9HCG4 308-321 (peptide)
chain: PPPPIPRPAKLQAA
On to B10, for which the values for the normalised SPOT signal, Boehringer light units (BLU); mean over the file's lines of this peptide in test [1] and in test [2] were 102 and 91, respectively.

B11: Q9UL51 22-36 (peptide)
chain: PPPPPPRPPKQQPP
As for B11, the normalised SPOT signal, Boehringer light units (BLU); mean over the file's lines of this peptide turned out to be 1160 in test [1] and 994 in test [2].

B12: Q9H0P6 178-191 (peptide)
chain: ASATLGRPPRIPEP
Take B12: the normalised SPOT signal, Boehringer light units (BLU); mean over the file's lines of this peptide in test [1] worked out at 65.5; in test [2] it was 139.

B13: Q07890 1215-1229 (peptide)
chain: PPPVPLRPPEHFIN
Take B13: the normalised SPOT signal, Boehringer light units (BLU); mean over the file's lines of this peptide in test [1] amounted to 435; in test [2] it was 189.

B14: O15117 355-369 (peptide)
chain: PPPKPNRPPNVDLT
Regarding B14, the normalised SPOT signal, Boehringer light units (BLU); mean over the file's lines of this peptide was 2890 in test [1] and 316 in test [2].

B15: O94979 386-399 (peptide)
chain: PPKWIRRPVGASFS
With B15, the normalised SPOT signal, Boehringer light units (BLU); mean over the file's lines of this peptide in test [1] was 642; in test [2], 41.1.

B16: O15056 1170-1184 (peptide)
chain: PPLLPRRPPPRVPA
With B16, the normalised SPOT signal, Boehringer light units (BLU); mean over the file's lines of this peptide in test [1] is 7190; in test [2], 4490.

B17: Q13191 554-568 (peptide)
chain: PPPPPERPPPIPPD
As to B17, the normalised SPOT signal, Boehringer light units (BLU); mean over the file's lines of this peptide came to 74.8 in test [1] and 29.1 in test [2].

B18: Q9Y6J0 1777-1790 (peptide)
chain: PPLLPGRPARDRGP
As for B18, the normalised SPOT signal, Boehringer light units (BLU); mean over the file's lines of this peptide in test [1] was determined as 27100; in test [2], 6220.

B19: P55201 903-917 (peptide)
chain: PPKRPGRPPKNRES
With B19, the normalised SPOT signal, Boehringer light units (BLU); mean over the file's lines of this peptide in test [1] was found to be 13900; in test [2] it was 7550.

B20: Q9BQI5 457-471 (peptide)
chain: PPPPPPRPPSRPKL
Consider B20, for which the normalised SPOT signal, Boehringer light units (BLU); mean over the file's lines of this peptide in test [1] was 13400; in test [2], 13700.

B21: O95612 13-26 (peptide)
chain: ASFQPARPHRARHP
Regarding B21, the normalised SPOT signal, Boehringer light units (BLU); mean over the file's lines of this peptide in test [1] was found to be 649; in test [2], 3200.

B22: Q9UPS6 163-177 (peptide)
chain: PPPRPPRPPSPPPE
B22: the normalised SPOT signal, Boehringer light units (BLU); mean over the file's lines of this peptide is 9410 in test [1] and 5310 in test [2].

B23: Q9UPS6 160-174 (peptide)
chain: PPLPPPRPPRPPSP
Turning to B23, the normalised SPOT signal, Boehringer light units (BLU); mean over the file's lines of this peptide in test [1] turned out to be 8000; in test [2] it was 5630.

B24: BAC04291 42-56 (peptide)
chain: PPHLPARPPGGWSR
On to B24, for which the normalised SPOT signal, Boehringer light units (BLU); mean over the file's lines of this peptide in test [1] was determined as 2410; in test [2], 1280.

B25: Q14956 325-338 (peptide)
chain: PPPPPPRPSKPTPS
On to B25, for which the normalised SPOT signal, Boehringer light units (BLU); mean over the file's lines of this peptide in test [1] was determined as 14300; in test [2], 1290.

B26: O75412 1048-1061 (peptide)
chain: PPPLPRRPSTPRQG
As to B26, the normalised SPOT signal, Boehringer light units (BLU); mean over the file's lines of this peptide came to 9490 in test [1] and 1930 in test [2].

B27: Q8TEH3 833-847 (peptide)
chain: PPLLPPRPPQGLEP
In the case of B27, the values for the normalised SPOT signal, Boehringer light units (BLU); mean over the file's lines of this peptide in test [1] and in test [2] were 335 and 107, respectively.

B28: Q9BR93 13-27 (peptide)
chain: PPPPPLRPPPPPPP
As to B28, the figures for the normalised SPOT signal, Boehringer light units (BLU); mean over the file's lines of this peptide in test [1] and in test [2] were 1160 and 283, respectively.
